Test system: Escherichia coli TOP10
Experiment: shrunken log2 fold change of peptide-encoding DNA abundance (4.5 h post-induction vs induction); higher = less antimicrobial activity (less host growth inhibition)
Details: time post-induction: 4.5 h; library: site-saturation at positions 5, 18, 19, 20
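Further: peptides expressed intracellularly from a pBAD plasmid library in pooled LB shake-flask culture, induced with 0.3% L-arabinose, DNA abundance read by NGS, three biological replicates, DESeq2 with apeglm shrinkage.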

| Sequence | shrunken log2 fold change |
| --- | --- |
| RRIRNRPPRLPRPRPRPLSTPRP | 0.0462 |
| RRIRNRPPRLPRPRPRPLPWPRP | 0.00924 |
| RRIRYRPPRLPRPRPRPDHFPRP | 0.00911 |
| RRIRDRPPRLPRPRPRPQNEPRP | -0.24 |
| RRIRDRPPRLPRPRPRPDPDPRP | 0.671 |
| RRIRNRPPRLPRPRPRPFVSPRP | -0.394 |
| RRIRMRPPRLPRPRPRPYRTPRP | 0.0313 |
| RRIRERPPRLPRPRPRPQDSPRP | -0.222 |
| RRIRQRPPRLPRPRPRPMQVPRP | -0.0356 |
| RRIRTRPPRLPRPRPRPTQQPRP | 0.175 |
| RRIRYRPPRLPRPRPRPALTPRP | -0.044 |
| RRIRSRPPRLPRPRPRPWLMPRP | -0.156 |
| RRIRFRPPRLPRPRPRPYFRPRP | -0.134 |
| RRIRLRPPRLPRPRPRPYSDPRP | -0.0348 |
| RRIRMRPPRLPRPRPRPQCWPRP | 0.14 |
| RRIRQRPPRLPRPRPRPNFLPRP | -0.492 |
| RRIRARPPRLPRPRPRPEVTPRP | 1.28 |
| RRIRPRPPRLPRPRPRPGEDPRP | 0.461 |
| RRIRGRPPRLPRPRPRPWGMPRP | 0.0572 |
| RRIRFRPPRLPRPRPRPACEPRP | -0.0985 |
| RRIRKRPPRLPRPRPRPMDDPRP | 0.123 |
| RRIRCRPPRLPRPRPRPHRLPRP | -0.227 |
| RRIRQRPPRLPRPRPRPAEFPRP | -0.0119 |
| RRIRERPPRLPRPRPRPLNFPRP | -0.34 |
| RRIRIRPPRLPRPRPRPDKDPRP | -0.0993 |

| Sequence | shrunken log2 fold change |
| --- | --- |
| RRIRKRPPRLPRPRPRPKPPPRP | 0.76 |
| RRIRKRPPRLPRPRPRPSRNPRP | -0.0207 |
| RRIRDRPPRLPRPRPRPSGPPRP | -0.0549 |
| RRIRERPPRLPRPRPRPSKHPRP | -0.775 |
| RRIRERPPRLPRPRPRPRANPRP | -0.158 |
| RRIRKRPPRLPRPRPRPDCPPRP | 0.178 |
| RRIRSRPPRLPRPRPRPAPSPRP | 1.24 |
| RRIRQRPPRLPRPRPRPGNEPRP | 0.177 |
| RRIRERPPRLPRPRPRPENNPRP | -0.27 |
| RRIRWRPPRLPRPRPRPPFSPRP | 0.222 |
| RRIRIRPPRLPRPRPRPGKWPRP | 0.0539 |
| RRIRCRPPRLPRPRPRPSLSPRP | -0.429 |
| RRIRYRPPRLPRPRPRPPNRPRP | -0.0643 |
| RRIRIRPPRLPRPRPRPKDKPRP | -0.747 |
| RRIRWRPPRLPRPRPRPMAQPRP | 0.218 |
| RRIRYRPPRLPRPRPRPFTIPRP | -0.00992 |
| RRIRMRPPRLPRPRPRPHVGPRP | 0.105 |
| RRIRDRPPRLPRPRPRPKNDPRP | -0.103 |
| RRIRSRPPRLPRPRPRPEFLPRP | 0.278 |
| RRIRRRPPRLPRPRPRPDSAPRP | 0.288 |
| RRIRKRPPRLPRPRPRPLPGPRP | 0.529 |
| RRIRTRPPRLPRPRPRPTSMPRP | 0.308 |
| RRIRCRPPRLPRPRPRPKMWPRP | 1.22 |
| RRIRERPPRLPRPRPRPTCIPRP | -0.23 |
| RRIRTRPPRLPRPRPRPNAFPRP | -0.0622 |

| Sequence | shrunken log2 fold change |
| --- | --- |
| RRIRCRPPRLPRPRPRPWHMPRP | -0.119 |
| RRIRCRPPRLPRPRPRPQVWPRP | -0.0474 |
| RRIRDRPPRLPRPRPRPHQQPRP | -0.0346 |
| RRIRQRPPRLPRPRPRPYKSPRP | -0.248 |
| RRIRERPPRLPRPRPRPMKHPRP | -0.794 |
| RRIRWRPPRLPRPRPRPQLMPRP | 0.13 |
| RRIRIRPPRLPRPRPRPRIIPRP | -0.199 |
| RRIRRRPPRLPRPRPRPNLGPRP | 0.00298 |
| RRIRWRPPRLPRPRPRPYKQPRP | -0.0587 |
| RRIRKRPPRLPRPRPRPAPGPRP | 0.637 |
| RRIRVRPPRLPRPRPRPLEQPRP | -0.0372 |
| RRIRSRPPRLPRPRPRPKEIPRP | -0.0586 |
| RRIRQRPPRLPRPRPRPTCTPRP | -0.0329 |
| RRIRQRPPRLPRPRPRPYIWPRP | -0.0658 |
| RRIRARPPRLPRPRPRPGHWPRP | 0.628 |
| RRIRYRPPRLPRPRPRPTWWPRP | 0.134 |
| RRIRPRPPRLPRPRPRPNLMPRP | -0.0727 |
| RRIRQRPPRLPRPRPRPLHSPRP | -0.295 |
| RRIRKRPPRLPRPRPRPVWFPRP | 0.142 |
| RRIRIRPPRLPRPRPRPDPIPRP | -0.0427 |
| RRIRWRPPRLPRPRPRPFCDPRP | 0.189 |
| RRIRKRPPRLPRPRPRPMMLPRP | -0.0136 |
| RRIRRRPPRLPRPRPRPPMFPRP | 0.26 |
| RRIRQRPPRLPRPRPRPSNEPRP | -0.5 |
| RRIRKRPPRLPRPRPRPSHKPRP | -0.262 |

| Sequence | shrunken log2 fold change |
| --- | --- |
| RRIRIRPPRLPRPRPRPAVQPRP | -0.107 |
| RRIRWRPPRLPRPRPRPCRFPRP | 0.0225 |
| RRIRCRPPRLPRPRPRPEINPRP | 0.122 |
| RRIRYRPPRLPRPRPRPKEDPRP | -0.122 |
| RRIRIRPPRLPRPRPRPYPEPRP | -0.0522 |
| RRIRPRPPRLPRPRPRPLDFPRP | -0.116 |
| RRIRWRPPRLPRPRPRPCVDPRP | 0.0275 |
| RRIRCRPPRLPRPRPRPDENPRP | -0.0357 |
| RRIRERPPRLPRPRPRPGESPRP | -0.0304 |
| RRIRTRPPRLPRPRPRPWQDPRP | -0.326 |
| RRIRHRPPRLPRPRPRPKHKPRP | -0.297 |
| RRIRPRPPRLPRPRPRPSMIPRP | -0.547 |
| RRIRCRPPRLPRPRPRPERSPRP | 0.0846 |
| RRIRKRPPRLPRPRPRPMGCPRP | 0.408 |
| RRIRLRPPRLPRPRPRPCKIPRP | -0.357 |
| RRIRGRPPRLPRPRPRPTDMPRP | 1.1 |
| RRIRPRPPRLPRPRPRPCMFPRP | -0.577 |
| RRIRDRPPRLPRPRPRPSMAPRP | 0.202 |
| RRIRLRPPRLPRPRPRPYTKPRP | 0.119 |
| RRIRDRPPRLPRPRPRPPWGPRP | 0.344 |
| RRIRVRPPRLPRPRPRPARAPRP | 0.566 |
| RRIRCRPPRLPRPRPRPNLLPRP | -0.572 |
| RRIRARPPRLPRPRPRPYVLPRP | -0.347 |
| RRIRSRPPRLPRPRPRPATRPRP | 0.415 |
| RRIRERPPRLPRPRPRPNHNPRP | -0.418 |

| Sequence | shrunken log2 fold change |
| --- | --- |
| RRIRDRPPRLPRPRPRPSTKPRP | 0.116 |
| RRIRERPPRLPRPRPRPHAPPRP | -0.0944 |
| RRIRVRPPRLPRPRPRPTTKPRP | -0.162 |
| RRIRSRPPRLPRPRPRPYHKPRP | -0.404 |
| RRIRKRPPRLPRPRPRPYAYPRP | -0.12 |
| RRIRRRPPRLPRPRPRPGISPRP | 0.0929 |
| RRIRVRPPRLPRPRPRPHIFPRP | -0.547 |
| RRIRCRPPRLPRPRPRPIEFPRP | 0.191 |
| RRIRMRPPRLPRPRPRPSNLPRP | 0.00954 |
| RRIRSRPPRLPRPRPRPDEHPRP | -0.125 |
| RRIRRRPPRLPRPRPRPPTSPRP | 0.54 |
| RRIRPRPPRLPRPRPRPDEDPRP | 0.00574 |
| RRIRLRPPRLPRPRPRPMQIPRP | 0.057 |
| RRIRDRPPRLPRPRPRPPEQPRP | 0.261 |
| RRIRGRPPRLPRPRPRPMEMPRP | 0.756 |
| RRIRVRPPRLPRPRPRPSHSPRP | -0.171 |
| RRIRDRPPRLPRPRPRPHYRPRP | -0.562 |
| RRIRARPPRLPRPRPRPYCPPRP | -0.585 |
| RRIRMRPPRLPRPRPRPYYYPRP | -0.304 |
| RRIRMRPPRLPRPRPRPKNFPRP | -0.15 |
| RRIRMRPPRLPRPRPRPCNWPRP | -0.00208 |
| RRIRRRPPRLPRPRPRPYDDPRP | -0.577 |
| RRIRNRPPRLPRPRPRPPGRPRP | 0.769 |
| RRIRFRPPRLPRPRPRPMAEPRP | 0.0579 |
| RRIRFRPPRLPRPRPRPLRLPRP | 0.891 |

| Sequence | shrunken log2 fold change |
| --- | --- |
| RRIRKRPPRLPRPRPRPGCLPRP | 0.646 |
| RRIRKRPPRLPRPRPRPQMVPRP | -0.0031 |
| RRIRRRPPRLPRPRPRPGLDPRP | 0.161 |
| RRIRLRPPRLPRPRPRPEFVPRP | 0.0203 |
| RRIRDRPPRLPRPRPRPCKWPRP | -0.203 |
| RRIRRRPPRLPRPRPRPGARPRP | 0.507 |
| RRIRTRPPRLPRPRPRPDNTPRP | -0.191 |
| RRIRSRPPRLPRPRPRPCTHPRP | -0.00194 |
| RRIRSRPPRLPRPRPRPINKPRP | -0.641 |
| RRIRKRPPRLPRPRPRPKAHPRP | 0.242 |
| RRIRQRPPRLPRPRPRPQEIPRP | 0.0292 |
| RRIRIRPPRLPRPRPRPCEPPRP | -0.28 |
| RRIRPRPPRLPRPRPRPWRSPRP | 0.0793 |
| RRIRNRPPRLPRPRPRPMVFPRP | -0.000155 |
| RRIRERPPRLPRPRPRPGNEPRP | -0.0966 |
| RRIRFRPPRLPRPRPRPMSAPRP | -0.105 |
| RRIRIRPPRLPRPRPRPKDTPRP | -0.224 |
| RRIRVRPPRLPRPRPRPTMWPRP | 0.267 |
| RRIRSRPPRLPRPRPRPHYTPRP | -0.728 |
| RRIRHRPPRLPRPRPRPYPEPRP | -0.267 |
| RRIRCRPPRLPRPRPRPMYQPRP | -0.265 |
| RRIRARPPRLPRPRPRPYWRPRP | -0.096 |
| RRIRPRPPRLPRPRPRPHHNPRP | -0.859 |
| RRIRVRPPRLPRPRPRPYASPRP | 0.00213 |
| RRIRTRPPRLPRPRPRPSKLPRP | -0.473 |

Source: the supplement of paper PMC9112550, “Optimization of the antimicrobial peptide Bac7 by deep mutational scanning” (BMC Biology, 2022)
